Laboratory results as given in article PMC7533328, “Sulfane sulfur‐activated actinorhodin production and sporulation is maintained by a natural gene circuit in Streptomyces coelicolor”.

T1: ScCsoR (Streptomyces coelicolor M145) (UniProt Q9RD62)
T1 sequence: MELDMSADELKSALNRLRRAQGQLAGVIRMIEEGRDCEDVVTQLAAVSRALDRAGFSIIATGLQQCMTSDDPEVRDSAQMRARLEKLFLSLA

T2: ScCsoR-C66S C67S (Streptomyces coelicolor M145), ORF:9a82776c
T2 sequence: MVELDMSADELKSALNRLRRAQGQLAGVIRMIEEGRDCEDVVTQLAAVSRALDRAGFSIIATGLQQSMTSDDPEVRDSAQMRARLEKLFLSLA

T3: ScCsoR-C37S C38S (Streptomyces coelicolor M145), ORF:9a82776c
T3 sequence: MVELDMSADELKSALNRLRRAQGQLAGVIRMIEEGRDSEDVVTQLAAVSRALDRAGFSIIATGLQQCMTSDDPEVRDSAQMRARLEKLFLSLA

T4: ScCsoR-C37S-C66S C38S;C67S (Streptomyces coelicolor M145), ORF:9a82776c
T4 sequence: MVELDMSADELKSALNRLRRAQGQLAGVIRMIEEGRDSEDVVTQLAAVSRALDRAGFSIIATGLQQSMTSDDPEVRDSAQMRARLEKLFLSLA

T5: ScCsoR (Streptomyces coelicolor M145, UniProt Q9RD62 1-92)
T5 sequence: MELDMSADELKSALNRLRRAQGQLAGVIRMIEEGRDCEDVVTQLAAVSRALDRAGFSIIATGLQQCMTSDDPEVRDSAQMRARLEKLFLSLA


Legend:
[1] = target: T1, ScCsoR (Streptomyces coelicolor M145); experiment: EMSA; conditions: 20 mM Tris-HCl pH 8.0, 2 mM EDTA, 20 mM KCl, 0.5 mM DTT (or 1-3 mM HSnH), 4% Ficoll-400, 1 nM probe, 25 C, 15 min
[2] = tested on: T2, ScCsoR-C66S C67S (Streptomyces coelicolor M145), ORF:9a82776c; experiment: EMSA; conditions: 20 mM Tris-HCl pH 8.0, 2 mM EDTA, 20 mM KCl, 0.5 mM DTT (or 1-3 mM HSnH), 4% Ficoll-400, 1 nM probe, 25 C, 15 min
[3] = tested on: T3, ScCsoR-C37S C38S (Streptomyces coelicolor M145), ORF:9a82776c; experiment: EMSA; conditions: 20 mM Tris-HCl pH 8.0, 2 mM EDTA, 20 mM KCl, 0.5 mM DTT (or 1-3 mM HSnH), 4% Ficoll-400, 1 nM probe, 25 C, 15 min
[4] = tested on: T4, ScCsoR-C37S-C66S C38S;C67S (Streptomyces coelicolor M145), ORF:9a82776c; experiment: EMSA; conditions: 20 mM Tris-HCl pH 8.0, 2 mM EDTA, 20 mM KCl, 0.5 mM DTT (or 1-3 mM HSnH), 4% Ficoll-400, 1 nM probe, 25 C, 15 min
[5] = target: T5, ScCsoR; experiment: EMSA; DTT; also with 50-fold competitor DNA; 20 mM Tris-HCl pH 8.0, 2 mM EDTA, 20 mM KCl, 0.5 mM DTT (or 1-3 mM HSnH), 4% Ficoll-400, 1 nM probe, 25 C, 15 min; conditions: protein: recombinant; tags: N-terminal His-tag (pET15b); chain copies: 4; label: 5'-biotin on strand 1; blunt
[6] = target: T5, ScCsoR; experiment: competition EMSA; 50-fold excess over 79-bp probe; 20 mM Tris-HCl pH 8.0, 2 mM EDTA, 20 mM KCl, 0.5 mM DTT (or 1-3 mM HSnH), 4% Ficoll-400, 1 nM probe, 25 C, 15 min; conditions: protein: recombinant; tags: N-terminal His-tag (pET15b); chain copies: 4; blunt

Row | Molecule | binding [1] | other results
1 | TCTGCTCACGCCGCCCCCGCGCCGTCGCGGGCCGAGTGCGCCGCCGCTGCGCGCCTGTGCCGCGAGACCCGGGCAACTCCGGTGTACGACGCCGAAGTTGGGGTAC (double strand) [Scpdo promoter f1] | no binding | 
2 | GCCAGATAGCTGCGGTTGCCCAGTGACTCGGTCTCCAGGACGTCGACAAAGAACACGGCACGCTCTCCTTCCGGAATTACCCCCTGGGGTATCTCTTCCGGCCACCGTAACAGATATACCCAGGGGGGTATTGAGAGGGTGTGCTCGTCGTCTGCTCACGCCGCCCCCGCGCCGTCGCGGGCCGAGTGCGCCGCCGCTGCGCGCCTGTGCCGCGAGACCCGGGCAACTCCGGTGTACGACGCCGAAGTTGGGGTAC (double strand) [Scpdo promoter 256 bp] | binds | binding [2]: binds; binding [3]: binds; binding [4]: binds
3 | ACGGCGCGGGGGCGGCGTGAGCAGACGACGAGCACACCCTCTCAATACCCCCCTGGGTATATCTGTTACGGTGGCCGGAAGAGATACCCCAGGGGGTAATTCCGGAAGGA (double strand) [Scpdo promoter f2] | binds | 
4 | CGACGACGGTGAACTCGGCCAGGCGGGCCGCCGCCTGCCCGGTGGTCAGTGCGGTGGCGGTTGCTGCGGGGGTGTTCACGGAGCGAGACCTTTCTCGTTGTTCGTCCCCCCGCGCGGTAGGATACCCGCGGGGGTATGTGGGGTTCGGTGAGGTATCGGGTGGAGGAGAGGGAGAAGCGTGGAGCTCGACATGTCGGCCGACGAACTGAAGTCGGCGCTGAACCGGCTGCGGCGCGCCCAGGGGCAGCTCGCGGGAGTCAT (double strand) [SccsoR-Scrhod intergenic region 261 bp] | binds | 
5 | AGGACGTCGACAAAGAACACGGCACGCTCTCCTTCCGGAATTACCCCCTGGGGTATCTCTTCCGGCCACCGTAACAGATATACCCAGGGGGGTATTGAGAGGGTGTGC (double strand) [Scpdo promoter f3] | binds | 
6 | CGGTGACCTTCTCCGCCCCGTGTTCGGCGGCGAGGCGCACCGCGGCCTCGGCCAGAGCGGCACGTGTGGCCCGCTTCTTCCGCTCCCGCAGACCGCCCCCCGCGGCACCCTTCTCCGACATAAGTTGCATGGTATGCAAAGATGCATGACATGCAAAATTGGCGGGCGCCGACCCCGGAAGGGGATCGGCGCCCGCCGTCGTCGGTGCGGCTCAGGCGGCCAGTCGGGCCAGCGTCTCCTCG (double strand) [sco0622 promoter 242 bp] | no binding | 
7 | GCCAGATAGCTGCGGTTGCCCAGTGACTCGGTCTCCAGGACGTCGACAAAGAACACGGCACGCTCTCCTTCCGGAATTACCCCCTGGGGTATCTCTTCCGGCCACCGT (double strand) [Scpdo promoter f4] | no binding | 
8 | Scpdo 79-bp probe (bsI, bsII) (dsDNA) DNA 1: CCTGGGTATATCTGTTACGGTGGCCGGAAGAGATACCCCAGGGGGTAATTCCGGAAGGAGAGCGTGCCGTGTTCTTTGT DNA 2: ACAAAGAACACGGCACGCTCTCCTTCCGGAATTACCCCCTGGGGTATCTCTTCCGGCCACCGTAACAGATATACCCAGG |  | binding result [5]: binds
9 | hrdB 79-bp competitor DNA (dsDNA) DNA 1: CATTCCCAAGCCGGTGGTCGGCCCCTGTCCGCCGTGGACGGGGCCGGAAGCCGTTTTTCAACGTTCCGAGAGGTTGTTC DNA 2: GAACAACCTCTCGGAACGTTGAAAAACGGCTTCCGGCCCCGTCCACGGCGGACAGGGGCCGACCACCGGCTTGGGAATG |  | binding result [6]: no binding
